From article PMC8547449, “Streptococcus pyogenes Forms Serotype- and Local Environment-Dependent Interspecies Protein Complexes” (mSystems, 2021)

Molecular target: T1, C4b-binding protein (human, UniProt P04003 49-597; P20851 18-252)
T1 construct: In the AP-MS experiments it was followed by its alpha chain (C4BPA); also called C4BP; C4BPα; source: endogenous, pooled human plasma (AP-MS); bought: Complement Technology, purified human complement C4BP, catalog A109 (SPR, TX-MS, HDX-MS); copies: 7 +
T1 sequence (looked up) 1: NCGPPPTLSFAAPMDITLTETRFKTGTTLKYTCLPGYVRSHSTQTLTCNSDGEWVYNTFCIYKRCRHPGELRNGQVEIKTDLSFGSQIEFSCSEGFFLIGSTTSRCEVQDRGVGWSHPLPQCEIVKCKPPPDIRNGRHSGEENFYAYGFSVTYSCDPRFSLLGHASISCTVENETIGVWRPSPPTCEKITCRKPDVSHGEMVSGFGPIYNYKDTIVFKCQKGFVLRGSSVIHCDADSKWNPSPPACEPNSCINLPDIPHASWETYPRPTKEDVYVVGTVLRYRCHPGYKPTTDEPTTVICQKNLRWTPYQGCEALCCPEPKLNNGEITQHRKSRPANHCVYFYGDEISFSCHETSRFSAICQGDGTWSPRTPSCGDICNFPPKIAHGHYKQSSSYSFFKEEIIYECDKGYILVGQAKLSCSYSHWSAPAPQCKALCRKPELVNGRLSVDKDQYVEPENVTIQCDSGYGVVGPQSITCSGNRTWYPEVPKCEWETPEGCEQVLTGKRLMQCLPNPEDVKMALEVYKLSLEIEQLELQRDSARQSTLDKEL
T1 sequence (looked up) 2: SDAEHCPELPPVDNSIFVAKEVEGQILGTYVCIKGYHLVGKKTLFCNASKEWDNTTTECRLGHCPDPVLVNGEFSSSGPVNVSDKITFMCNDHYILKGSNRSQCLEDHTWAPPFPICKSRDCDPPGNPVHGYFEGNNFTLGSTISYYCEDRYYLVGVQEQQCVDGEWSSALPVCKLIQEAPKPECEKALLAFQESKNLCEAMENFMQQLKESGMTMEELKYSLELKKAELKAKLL
Assay: cross-linking; TX-MS: 10 μg C4BP or 10 μg IgA Fc with 10 μg untagged M28 in 100 μl PBS, 37°C, DSS-H12/D12 at 0 to 2,000 μM for 60 min; cross-linked peptides by DDA-MS
Settings: both partners purified

B1: M28 protein, recombinant, affinity tag removed by TEV protease (natural protein)
chain: AESPKSTETSANGADKLADAYNTLLTEHEKLRDEYYTLIDAKEEEPRYKALRGENQDLREKEGKYQDKIKKLEEKEKNLEKKSEDVERHYLKKLDQEHKEQEERQKNLEELERQSQREIDKRYQEQLQKQQQLETEKQISEASRKSLSRDLEASRAAKKDLEAEHQKLKEEKQISDASRQGLSRDLEASRAAKKDLEAEHQKLKEEKQISDASRQGLSRDLEASREAKKKVEADLAEANSKLQALEKLNKELEEGKKLSEKEKAELQARLEAEAKALKEQLAKQAEELAKLKGNQTPNAKVAPQANRSRSAMTQQKR
notes: M protein of S. pyogenes serotype M28, mature, without the signal peptide and the LPXTG cell wall-anchoring motif, aa 42 to 358; Used for SPR, TX-MS and HDX-MS; also called untagged M28; TEV-cleaved M28; source: E. coli Tuner(DE3), purified (HisTrap, TEV digestion, HisTrap, Superdex 200)
B1: binds.
